These results are taken from US20220306744A1 (CRESCENDO BIOLOGICS, published 2022).

Changes are numbered by the printed parent chain.

Sequences and labels used below:
B1: 1.111b (VHH)
VHH: EVQLVESGGGLVKPGGSLRLSCAASGFTFSDESWTWMRQAPGKGLEWVSYISSGGGVKFYADSVKGRFTISRDNAKNSLYLQMNSLRAEDTAVYYCAREAPLRLGESPHDAFDISGQGTMVTVSS
B2: 1.114b (VHH)
VHH: B1 VHH with W34H
B3: 1.113b (VHH)
VHH: B1 VHH with W34S
B4: 1.112b (VHH)
VHH: B1 VHH with W34I
B5: 1.115b (VHH)
VHH: B1 VHH with W34G
B6: 1.2a (VHH)
VHH: EVQLVESGGGLVQPGRSLRLSCAASGFTFDDYAMHWVRQAPGKDLEWVSGISWNGGSMGYAASVKGRFTISRDNAKNSLYLQMNSLRAEDTALYYCVKDKGPGLIGSTADYYGLDVWGQGTTVTVSS
B7: 1.4a (VHH)
VHH: B6 VHH with V5L, D30A, D44G, L45R, A62E, T91S, I105T, S107T, L114M
B8: 1.12a (VHH)
VHH: B6 VHH with E1Q, D44G, L45R, A62D, G66D, I105T, Y112H, L114M
B9: 1.11a (VHH)
VHH: B6 VHH with V5L, L11F, L20I, A62E, Q82K, A88V
B10: 1.10a (VHH)
VHH: B6 VHH with D30A, D44G, L45R, A62E, T91S, I105T, S107T, L114M
B11: 1.16a (VHH)
VHH: B6 VHH with E1Q, D44G, L45R, A62E, T91S, L114M
B12: 1.18a (VHH)
VHH: B6 VHH with E1Q
B13: 1.3a (VHH)
VHH: B6 VHH with V5L, D44G, L45R, G55S, A62D, G66D, Y112H
B14: 1.5a (VHH)
VHH: B6 VHH with D44G, A62D, G66D, S85R, Y112H
B15: 1.8a (VHH)
VHH: B6 VHH with D44G, G55S, A62D, G66D, Y112H
B16: 1.14a (VHH)
VHH: B6 VHH with D31G, D44G, L45R, G55S, A62E, T91S, I105T, L114M
B17: 1.13a (VHH)
VHH: B6 VHH with E1Q, K76Q
B18: 1.9a (VHH)
VHH: B6 VHH with L11C, L20I, D44G, L45R, A62E, T91S, L114M

T1 sequence (Q15116 21-288): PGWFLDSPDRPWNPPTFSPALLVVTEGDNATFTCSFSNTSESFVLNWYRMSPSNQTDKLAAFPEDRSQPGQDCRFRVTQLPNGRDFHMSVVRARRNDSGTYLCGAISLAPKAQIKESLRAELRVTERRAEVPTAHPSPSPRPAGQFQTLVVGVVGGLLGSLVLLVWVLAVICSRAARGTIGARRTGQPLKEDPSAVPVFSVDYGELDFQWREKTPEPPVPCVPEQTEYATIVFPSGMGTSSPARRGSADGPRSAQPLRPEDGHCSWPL

This test addresses T1, human PD-1 expressed on cells (CHO TREX human PD1 cell line, full-length human PD-1 sequence) (human, UniProt Q15116 21-288).
T1 construct: Also used for human PD-1 on Jurkat reporter cells, on PathHunter cells and on PHA-stimulated human CD4+ T cells; also called CHO human PD1 cells; CHO human PD-1 cells
Briefly: worded summary of the screens.
Turning to B1, the binding result is listed as “binds”.

Regarding B2, the binding result is “binds”.

B3: the binding result is recorded as “binds”. Take B4: the binding result is given as “binds”. With B5 the entry was “binds”; with B6, “binds”; with B7, “binds”.

B8: the binding result is listed as “binds”. With B9 the entry was “binds”; with B10, “binds”; with B11, “binds”. With B12 the entry was “binds”. Turning to B13, the binding result was “binds”. Take B14: the binding result is on record as “binds”. As for B15, the binding result is given as “binds”.

In the case of B16, the binding result is given as “binds”. Regarding B17, the binding result is “binds”. For the molecule B18, the binding result was “binds”.
